Our source for the Kd values is PMC11952658, “The zinc finger of DNA Ligase 3α binds to nucleosomes via an arginine anchor” (Research Square, 2025).

This experiment deals with Cy3-labeled human histone nucleosome core particle reconstituted on the Widom 601 sequence (human, Cy3-maleimide on K119C). In words: single-molecule fluorescence imaging on a tethered nucleosome (SMADNE, LUMICKS C-trap); Cy3-labeled undamaged 601 NCP ligated into 6 kb biotinylated DNA handles and tethered between optically trapped streptavidin beads, 4–5 pN tension; tagged proteins from nuclear extract; lifetimes from CRTD; KD from koff, apparent kon and protein concentration. Conditions: one partner purified.

B1: Halo 635-ZnF-BRCT LIG3α (domain or fragment)
chain: MAEQRFCVDYAKRGTAGCKKCKEKIVKGVCRIGKVVPNPFSESGGDMKEWYHIKCMFEKLERARATTKKIEDLTELEGWEELEDNEKEQITQHIADLSSKAAGTPKKKAVVQAKLTTTGQVTSPVKGASFVTSTNPRKFSGFSAKPNNSGEAPSSPTPKRSLSSSKCDPEKADFTVVAGDEGSSTTGGSSEENKGPSGSAVSRKAPSKPSASTKKAEGKLSNSNSKDGNMQTAKPSAMKVGEKLATKSSPVKVGEKRKAADETLCQTKVLLDIFTGVRLYLPPSTPDFSRLRRYFVAFDGDLVQEFDMTSATHVLGSRDKNPAAQQVSPEWIWACIRKRRLVAPC
modifications: Janelia Fluor 635 HaloTag ligand on the HaloTag
As to B1, the Kd turned out to be 1.1 ± 0.3 nM.
